Patent publication US20230183713A1, “SITE-SPECIFIC RECOMBINASES FOR EFFICIENT AND SPECIFIC GENOME EDITING” (TECHNISCHE UNIVERSITÄt DRESDEN, published 2023)

Key:
[1] = target: T1, Cre recombinase monomer with W315C mutation
T1 chain: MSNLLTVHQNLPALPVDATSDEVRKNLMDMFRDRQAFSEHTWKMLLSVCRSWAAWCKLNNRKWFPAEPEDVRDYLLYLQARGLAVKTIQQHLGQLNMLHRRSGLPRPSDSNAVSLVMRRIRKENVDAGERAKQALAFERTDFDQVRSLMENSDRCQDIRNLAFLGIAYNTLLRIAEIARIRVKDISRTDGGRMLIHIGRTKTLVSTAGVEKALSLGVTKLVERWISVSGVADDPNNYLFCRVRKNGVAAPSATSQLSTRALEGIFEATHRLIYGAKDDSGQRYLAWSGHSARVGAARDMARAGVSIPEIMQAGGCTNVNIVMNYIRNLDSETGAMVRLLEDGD

[2] = target: T2, Cre recombinase monomer with W315I mutation
T2 chain: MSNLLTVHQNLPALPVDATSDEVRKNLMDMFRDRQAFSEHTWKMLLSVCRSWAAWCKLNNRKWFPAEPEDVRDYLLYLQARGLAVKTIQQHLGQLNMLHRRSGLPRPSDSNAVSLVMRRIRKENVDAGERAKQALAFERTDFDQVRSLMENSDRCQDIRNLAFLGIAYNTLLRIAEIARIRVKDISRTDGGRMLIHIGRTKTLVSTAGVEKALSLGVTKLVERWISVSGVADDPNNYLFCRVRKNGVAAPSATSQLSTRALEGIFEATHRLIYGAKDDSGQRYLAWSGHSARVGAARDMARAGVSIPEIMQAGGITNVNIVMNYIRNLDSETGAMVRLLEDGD

[3] = target: T3, Cre recombinase monomer with W315T mutation
T3 chain: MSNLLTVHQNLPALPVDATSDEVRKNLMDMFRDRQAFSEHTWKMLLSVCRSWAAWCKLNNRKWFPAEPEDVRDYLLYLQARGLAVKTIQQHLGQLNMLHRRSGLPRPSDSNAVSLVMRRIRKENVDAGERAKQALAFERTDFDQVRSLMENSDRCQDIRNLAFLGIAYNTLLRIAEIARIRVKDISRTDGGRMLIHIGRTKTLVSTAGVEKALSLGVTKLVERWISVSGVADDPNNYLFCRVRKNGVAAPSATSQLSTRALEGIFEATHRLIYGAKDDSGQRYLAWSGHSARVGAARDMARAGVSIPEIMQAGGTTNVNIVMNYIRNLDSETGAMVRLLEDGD

[4] = target: T4, Cre recombinase monomer with W315V mutation
T4 chain: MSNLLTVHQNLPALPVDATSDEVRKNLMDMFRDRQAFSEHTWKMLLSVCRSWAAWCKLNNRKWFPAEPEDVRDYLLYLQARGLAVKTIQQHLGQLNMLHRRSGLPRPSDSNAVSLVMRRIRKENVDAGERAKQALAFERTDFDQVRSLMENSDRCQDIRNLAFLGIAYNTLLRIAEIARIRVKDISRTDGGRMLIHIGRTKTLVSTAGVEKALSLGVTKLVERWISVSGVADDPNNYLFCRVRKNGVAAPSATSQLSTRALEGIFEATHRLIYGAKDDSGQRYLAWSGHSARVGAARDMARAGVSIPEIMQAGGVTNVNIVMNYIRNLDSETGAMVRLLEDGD

[5] = target: T5, Cre recombinase monomer with Y324C mutation
T5 chain: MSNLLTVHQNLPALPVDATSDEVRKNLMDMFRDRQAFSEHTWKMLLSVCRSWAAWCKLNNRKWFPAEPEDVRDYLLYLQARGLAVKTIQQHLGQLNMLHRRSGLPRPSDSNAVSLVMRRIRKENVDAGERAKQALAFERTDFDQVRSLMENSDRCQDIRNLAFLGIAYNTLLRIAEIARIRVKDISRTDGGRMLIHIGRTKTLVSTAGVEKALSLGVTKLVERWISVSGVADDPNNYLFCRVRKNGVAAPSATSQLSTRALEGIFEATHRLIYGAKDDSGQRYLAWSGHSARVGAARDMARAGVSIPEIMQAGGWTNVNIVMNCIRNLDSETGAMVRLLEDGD

[6] = target: T6, Cre recombinase monomer with Y324N mutation
T6 chain: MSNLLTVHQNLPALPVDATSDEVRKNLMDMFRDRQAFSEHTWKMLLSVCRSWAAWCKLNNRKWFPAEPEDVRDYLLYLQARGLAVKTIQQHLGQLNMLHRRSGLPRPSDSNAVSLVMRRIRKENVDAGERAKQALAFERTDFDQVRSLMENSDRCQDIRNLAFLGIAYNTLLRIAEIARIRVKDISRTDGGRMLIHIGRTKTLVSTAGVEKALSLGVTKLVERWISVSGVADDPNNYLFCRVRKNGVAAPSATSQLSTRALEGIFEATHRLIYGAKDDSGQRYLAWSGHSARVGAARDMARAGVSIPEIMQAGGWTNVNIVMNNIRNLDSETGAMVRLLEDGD

[7] = target: T7, Cre recombinase monomer with Y324S mutation
T7 chain: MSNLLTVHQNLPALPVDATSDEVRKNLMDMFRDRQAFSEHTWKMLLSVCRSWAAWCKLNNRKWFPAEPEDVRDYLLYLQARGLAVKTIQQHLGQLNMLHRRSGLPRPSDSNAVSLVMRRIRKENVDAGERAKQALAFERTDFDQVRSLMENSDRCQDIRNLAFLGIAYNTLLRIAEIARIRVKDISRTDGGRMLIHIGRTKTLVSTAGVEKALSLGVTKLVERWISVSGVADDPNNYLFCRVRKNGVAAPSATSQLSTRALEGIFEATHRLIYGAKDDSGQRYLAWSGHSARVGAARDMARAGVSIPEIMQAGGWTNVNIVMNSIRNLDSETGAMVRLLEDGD

[8] = target: T8, Cre recombinase monomer with Y324T mutation
T8 chain: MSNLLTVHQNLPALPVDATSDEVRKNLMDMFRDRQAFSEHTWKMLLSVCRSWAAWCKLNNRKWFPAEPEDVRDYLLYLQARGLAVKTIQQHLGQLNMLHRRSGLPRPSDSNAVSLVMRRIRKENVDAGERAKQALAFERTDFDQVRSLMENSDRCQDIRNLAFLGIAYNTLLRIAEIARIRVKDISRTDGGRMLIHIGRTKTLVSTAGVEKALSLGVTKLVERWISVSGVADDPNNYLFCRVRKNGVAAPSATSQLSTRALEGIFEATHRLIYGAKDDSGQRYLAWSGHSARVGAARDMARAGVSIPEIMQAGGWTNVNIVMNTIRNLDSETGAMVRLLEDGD

B1: Cre recombinase monomer with Q311R mutation (protein)
chain: MSNLLTVHQNLPALPVDATSDEVRKNLMDMFRDRQAFSEHTWKMLLSVCRSWAAWCKLNNRKWFPAEPEDVRDYLLYLQARGLAVKTIQQHLGQLNMLHRRSGLPRPSDSNAVSLVMRRIRKENVDAGERAKQALAFERTDFDQVRSLMENSDRCQDIRNLAFLGIAYNTLLRIAEIARIRVKDISRTDGGRMLIHIGRTKTLVSTAGVEKALSLGVTKLVERWISVSGVADDPNNYLFCRVRKNGVAAPSATSQLSTRALEGIFEATHRLIYGAKDDSGQRYLAWSGHSARVGAARDMARAGVSIPEIMRAGGWTNVNIVMNYIRNLDSETGAMVRLLEDGD
Median dimer activity (recombination on loxP) [1]: 84%
Median dimer activity (recombination on loxP) [2]: 92%
Median dimer activity (recombination on loxP) [3]: 66%
Median dimer activity (recombination on loxP) [4]: 91%
Median dimer activity (recombination on loxP) [5]: 93%
Median dimer activity (recombination on loxP) [6]: 81%
Median dimer activity (recombination on loxP) [7]: 81%
Median dimer activity (recombination on loxP) [8]: 85%
